Experiment: yeast display, Sf9 membrane polyspecificity reagent, FACS + sequencing; frameworks hold sequencing errors
Outline: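 Galactose induction of a Saccharomyces cerevisiae BJ5465 synthetic nanobody display library ran 36–48 hours. The cells were then stained for 1 hour at 4 °C with 10% biotinylated, detergent-solubilized Sf9 membrane reagent, pulled down on streptavidin microbeads and FACS-sorted into low and high (top ~1%) gates on expression and reagent-binding fluorescence. Labels for polyreactivity follow the gate of origin.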

| Sequence | polyreactivity (PSR sort gate) |
| --- | --- |
| QVQLVESGGGLVQAGGSLPLSCAASGRIFRGYAMGWYRQAPGKERELVAAISRTGGSTYYADSVKGRFTISRDNAKNTVYLQMNSLKPEDTEVYYCNANRFRRYDWGQGTLVTVSS | high polyreactivity |
| QVQLVESGGGLVQAGGSLPLSCAASGRIFYFNAMGWYRPAPGKEREFVASINSIGDSTYYADSVKGRFTISRDNAKKTVYLQMHSLKPEDTAVYYCNADHGVINYRLDYWGQGTQVTVSS | low polyreactivity |
| QVQLVESGGGLVQAGGSLPLSCAASGRTFRRYAMGWYRQAPGKETELVAAISWGAGSTRYADSVKGRFTISRDNAKNTVYLQLNSLKPEDTAVYYCAAENTRAYGMYYWGQGTQVTVSS | high polyreactivity |
| QVQLVESGGGLVQAGGSLPLSCAASGSIFDLYTMGWYRQAPGKEREMVASISSSGGSTYYADSVKGRFTISRDNAKNTVYLQMNSLKPEDTAVYYCAAVASYHAYQYYYWGQGTQVTVSS | high polyreactivity |
| QVQLVESGGGLVQAGGSLPLSCAASGSIFGTYAMGWYRQAPGKERELVAAITTSAGSTYYADSVKGRFTISRDNAKNTVYLQMKSLKPEDTAVYYCAARFRRGITYEYWGQGTQVTVSS | high polyreactivity |
| QVQLVESGGGLVQAGGSLPLSCAASGSNFWRNALGWYRQAPGKERELVAAISGSGGSTYYADSVKGRFTISRDNAKNTVYLQMNSLKPEDTAVYYSYVSRMDYWGQGTQVTVSS | high polyreactivity |
| QVQLVESGGGLVQAGGSLPLSSAAYGSIFYYNAMGWYRQAPGKERELVAAISYSGDSTSYADSVKGRFTISRDNAKNYVFLQMYRLKPEDTAVFYCAAEQDYEDFYEDYYWGQGTQVTVSS | high polyreactivity |
| QVQLVESGGGLVQAGGSLPLTCAASGRIFGVYAMGWYRQAPGKERELVASISWSGSSTYYADSVKGRFTISRDNEKNTVYLQMNSLKPEDTAVYYCAADANHYRYGGGYWGQGTQVTVSS | low polyreactivity |
| QVQLVESGGGLVQAGGSLRFNCSASGSIFVRYTIGWYRQAPGKERELVAAISWGGGSTYYADSVKGRFTISRDNANNTVYLQMNSLKPEDTAVYYCNKRYIQLYDYWGQGTQVTVSS | low polyreactivity |
| QVQLVESGGGLVQAGGSLRFSCAASGFIFRRYTMGWYRQAPGKERELVAAISITGSRTYYADSVKGRFTISRDNAKNTVYLQMNSLKPEDTAVYYCAARVWYAPKTLFGYDFDYWGQGTQVTVSS | high polyreactivity |
| QVQLVESGGGLVQAGGSLRFSCAASGFIFTLYAMGWYRQAPGKERELVASIRGSGGNTYYADSVKGRFTISRDNEKNTVYLQMNSLKPEDTAVYYCAARTYRRPYYSWGQGTQVTVSS | high polyreactivity |
| QVQLVESGGGLVQAGGSLRFSCAASGFTFSYYAMGCYRQAPGKERELVAAISWSGGSTYYADSVKGRFTISRDTAKNTVYLQMNSLKPEDTAVYYCAAYLFYSSRSSYYGYDYWGQGTQVTVSS | high polyreactivity |
| QVQLVESGGGLVQAGGSLRFSCAASGGIFFRNAMVWYRQAPGKEREFVAVISSGGSTYYADSVKGRFTISRDNAKNTVYLQMNSLKPEDTAVYYCAARRKRPGYTVTLHYPYNYWGQGTQVTVSS | high polyreactivity |
| QVQLVESGGGLVQAGGSLRFSCAASGGIFRLYGMGWYREAPGKERELVAAIRQSGGRTYYADSVKGRFTISRDNAKNTVYLQMNSLKPEDTAVYYCAADLLYRSSGTVRSDYSRYDYWGQGTQVTVSS | low polyreactivity |
| QVQLVESGGGLVQAGGSLRFSCAASGIIFQRNDMGLYRQAPGKERELVANIRDGGITYADSVKGRFTLSRDNAKNTFYLQMNSLKPEDTAVYYCAADYHTPSSFAPIELYDYWGQGTQVTVSS | low polyreactivity |
| QVQLVESGGGLVQAGGSLRFSCAASGRIFGRYAMGWYRQAPGKERELVAAISSTGGSTYYADSVKGRFTISRDNANNTVYLQMNSLKPEDTAVYYCATVWYGRYYWATEYWGQGTQVTVSS | high polyreactivity |
| QVQLVESGGGLVQAGGSLRFSCAASGRPFPYYVMGWYRQAPGKERELVAAINSGGRTNYADSVKGRFTISRDNAKNTVYLQMNSLKPEDTAVYYCTKRGHPARLGYYYWGQGTQVNVSS | low polyreactivity |
| QVQLVESGGGLVQAGGSLRFSCAASGRTFPVYAMGWYRQAPGKEREFVAAISYRTGSTYYADSVKGRFTISRDNAKNTVYLQMNSLKPVDSAVYYCAADYRGSYWRYYYWGQGTQVTVSS | high polyreactivity |
| QVQLVESGGGLVQAGGSLRFSCAASGRTFTIYAMGWYRQAPGKERELVAAISWSEGSTYYADSVKGRFTISRDNAKNTVYLQMNSLKPEDTAVYYCAREVYGDASAPDMDYWGQGTQVTVSS | low polyreactivity |
| QVQLVESGGGLVQAGGSLRFSCAASGRTFWSNAMGWYRQAPGKERDFVAVISRAGSTTYYADSVKGRFTISRDNAKNTVYLQMNSLIPEETAVYYCAADRVRSYFSRYYSTPLDYYWGQGTQVTVSS | high polyreactivity |
| QVQLVESGGGLVQAGGSLRFSCAASGRTITRYAMGWYRQAPGKERELVAAISKRGTRTYYADSVKGRFTISRDHAKNTVYLQMNSLKPADTAVYYCNGAGRWALYYHLYTGFDYWGQGTQVTVSS | high polyreactivity |
| QVQLVESGGGLVQAGGSLRFSCAASGRTSRYYAMRWYRQAPGKERELVAGISTGGSTYYADSVKGRFTISRDNAKNTVYLQMKSLKPEDTAVYYCAAKYTRTNYYYWYYRMDFWGQGTQVTVSS | low polyreactivity |

| Sequence | polyreactivity (PSR sort gate) |
| --- | --- |
| QVQLVESGGGLVQAGGSLRFSCAASGSIFDYYAMGWYRQAPGKERELVASITWSGGRTSYADSVKGRFTISRDNAKNTVYLQMNSLKPEDTAVYYCAAKLWSYAYQHKRVWYYYWGQGTQVTVSS | high polyreactivity |
| QVQLVESGGGLVQAGGSLRFSCAASGSIFFNNAMGWYRQAPGKERELVAAITTGGSTYYADSVKGRFTISRDNAKNTVYLQMNSLKPEDTAVYYCAAVVVYPYRLGYDYWGQGTQVTVSS | low polyreactivity |
| QVQLVESGGGLVQAGGSLRFSCAASGSIFSWYAMGGYRQAPGKERELVAAITWTGGSTYYADSVKGRFTISRDNAKNTVYLQMNSLKPEETAVYYCAARRVVYRKYGDRARWYNYWGHGTQVTVSS | high polyreactivity |
| QVQLVESGGGLVQAGGSLRFSCAASGSILYYNAKGWYIQAPGKEREFVAAISDSGSSTYYADSVKGRFTISRDTAKNTVYLQMNSLKPEDTADYYCNAYQGDKYDSWGQGSQVTVSS | low polyreactivity |
| QVQLVESGGGLVQAGGSLRFSCAASGSTFIGYAMGWYRQAPGKERELVAGISRGGRTNYADSVKGRFTISRDNAKHTVYLQMNSLKPEDTAVYYCAAGYRRYYEGFWVIQMNYWGQGTQVTVSS | high polyreactivity |
| QVQLVESGGGLVQAGGSLRFSCAASGSTFKAYAMGWYRQAPGKERDLVARITYSGDITYYADSVKGRFTISRDNAKNTVYVQMNSLKRDDTAVFYCNDGFFVLEYDYWGQGTQLTVSS | low polyreactivity |
| QVQLVESGGGLVQAGGSLRFSCAASGSTFRYNAMGWYRQAPGKERELVAVISWGGGRTYYADSVKGRFTISRDNAKNTVYLKMNSLKPEDTAVYYCNVYFGRIVARDYGYWGQGTQVTVSS | high polyreactivity |
| QVQLVESGGGLVQAGGSLRFSCAASGSTFSYYDMGWYRQAPGKEREMVAAISWNGGTTFYADSVKGRFTISRDNAMNTVYLQMKSLKPEDTAVYYCAVTGFEVLWPSLGGELDYWGQGTQVTVSS | low polyreactivity |
| QVQLVESGGGLVQAGGSLRFSCAASGSTFYSYAMGWYRQAPGKERELVAGITGNDGSTYYADSVKGRFTISRDNAKNTVYLQMNSLKPEDTAVYYCNTDASPYLFDYWGQGTQVTVSS | low polyreactivity |
| QVQLVESGGGLVQAGGSLRFSCAASGTFYYYAMGWYRHAPGKERELVAAISYSGGRTYYADSVKGRFTISRDNAKNTVYLQMNSLKPEDTAVYYCNALYRKTPSYGADDYWGQGTQVTVSS | high polyreactivity |
| QVQLVESGGGLVQAGGSLRFSCAGSGSTFRNYAMGWYRQAPGQERAFVATISSAGGTTYYADSVKGRFTISRDKAKNTLYVQMNSLNPEDTAVYYCAADQHSYRYGGYYYWGQGTQVTVSS | low polyreactivity |
| QVQLVESGGGLVQAGGSLRFSCSASGSIFNYYTMGWYRQAPGKERELVAVITSGGSTYYADSVKGRFTISRDNAKNTVYLQMNSLKPEDTAVYYCAAKRRSYLKQGYSVGYWGQGSQVTVSS | high polyreactivity |
| QVQLVESGGGLVQAGGSLRFSCSAYGSILPGYAMGWYRQAPGKERELVDAISYRGTSTYYADSVKGRFTISRDNAKNTVYLQMNSLKPEDTAVYYCAAGGSWFSYPPRMDYWGQGTQVTVSS | high polyreactivity |
| QVQLVESGGGLVQAGGSLRFTFGATGIIFYRNTMGWYSLAPGKHRELVASLSRGGSTNYADSVKGRFTISRDNAKTTVYLQMNRLKPEDTAVDYCAAYTDIPLSYYRGYTMDYWGQGTQVTVSS | low polyreactivity |
| QVQLVESGGGLVQAGGSLRICCADSGLTFRFYSSGWYRQAPGKEMELVAAISRSGGSTYYADSVKGRFTISRDNAKNTVYLQMNSLKPEDSAVYYCAAGRRGGKHGGTRGGDYWGQGTQVTVSS | high polyreactivity |
| QVQLVESGGGLVQAGGSLRIICAASGRIFSKYARGWYRQAPGKERELVAAISSRGGNTYYADSVKGRFTISRDNAKNTVYLQMTSLKPEDTAVYFCAAGYYYTGYEYDYWGQGTQVTVSS | high polyreactivity |
| QVQLVESGGGLVQAGGSLRIICAASGRIFTFYAMGWYRQATGKARELVASIRSSTYYADSVKGRFTISRDNAKYTVYLQMNSLKPEDTALYYCNVRLSYSYISPSDWNFDYWGQGTQVTVSS | low polyreactivity |
| QVQLVESGGGLVQAGGSLRIICAASGSTFTWNDMRWYRQAPGKERELVAGISLSAGSTYYADSVKGRFTISRDNAKNTDYLQMKSLKPEHTAVYYCNADPGGPDTYEEHDYWGQGTQVTVSS | low polyreactivity |
| QVQLVESGGGLVQAGGSLRIISAASGSTFTRYTMGWYRQAPGKEMEFVAAISFSGGSTYYADSVKGRFTIARDNAKNTVYLEMNSLKPEDTAVYYCAASAHCYRPARDYWGQGTQVTVSS | low polyreactivity |
| QVQLVESGGGLVQAGGSLRIRCAASGRIFRTNAMGWYRQAPGKERELVAAISDSGADTSYADSVKGRFSISRDNAKNTDYLQMNSLKPEDTAVDYCNRGRVYYRYLKDYDYWGQGTQVTVSS | low polyreactivity |
| QVQLVESGGGLVQAGGSLRIRCAASGSTFKTYTMGWYRQAPGKERELVAGITSGGSTSYADSVKGRFTISRDNAKNTVYLQMNSLKPEVTAVYYCAAAEGGGLVTYDYCGQGTQVTVSS | low polyreactivity |

From the nanobody polyreactivity screen of Harvey et al. (2022)
